Test results from IntAct's records for PubMed 26211610.

B1: Translation initiation factor eIF2 assembly protein (Saccharomyces cerevisiae), Q05791 (parent)
chain: MSSQEYTTFIDIPVTRAQVEHCSYSFWSSLYPKYVPKSIVLKSLPKKFIQYLEQDGIKLPQEENSRSVYTEEIIRNEDNDYSDWEDDEDTATEFVQEVEPLIDFPELHQKLKDALNELGAVAPKLNWSAPRDATWILPNNTMKCNEVNELYLLLNASNYIMHDLQRAFKGCVDGDDIKGLKFDLVLRQWCDMNPALEFRVFVKNAHIVGATQRDLNYYDYLDELSDTFKDLIDEIVHDVVLPKFPDKSFVLDVYIPRPFNKIFIVDINPFARKTDSLLFSWNEIAAIAPPKNDVEDYELRLVTRHNTGRFASKEHSENHVPQDLVEASLNPEAIRELTQKWKELLSQQAKEESSDSENET

Variants of: B1
Details: with if2g_yeast GCD11, P32481
if2g_yeast GCD11, P32481, sequence (P32481 whole entry): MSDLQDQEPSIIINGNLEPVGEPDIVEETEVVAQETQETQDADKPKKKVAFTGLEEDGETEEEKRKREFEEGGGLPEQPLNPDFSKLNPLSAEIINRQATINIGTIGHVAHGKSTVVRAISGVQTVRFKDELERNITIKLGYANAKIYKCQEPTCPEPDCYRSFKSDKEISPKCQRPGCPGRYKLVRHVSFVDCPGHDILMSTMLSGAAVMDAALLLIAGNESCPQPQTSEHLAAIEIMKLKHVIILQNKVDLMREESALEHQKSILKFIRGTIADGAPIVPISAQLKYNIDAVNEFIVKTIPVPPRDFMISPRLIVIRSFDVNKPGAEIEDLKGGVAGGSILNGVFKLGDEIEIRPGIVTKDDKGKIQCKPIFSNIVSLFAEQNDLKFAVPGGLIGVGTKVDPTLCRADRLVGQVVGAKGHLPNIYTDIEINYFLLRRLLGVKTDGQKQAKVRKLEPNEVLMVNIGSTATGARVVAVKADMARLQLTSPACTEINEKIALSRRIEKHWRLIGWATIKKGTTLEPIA

Row | effect of a mutation on the interaction | Variant
1 | decreasing interaction strength | MSSQEYTTFIDIPVTRAQVEHCSYSFWSSLYPKYVPKSIVLKSLPKKFIQYLEQDGIKLPQEENSRSVYTEEIIRNEDNDYSDWEDDEDTATEFVQEVEPLIDFPELHQKLKDALNELGAVAPKLNWSAPRDATWILPNNTMKCNEVNELYLLLNASNYIMHDLQRAFKGCVDGDDIKGLKFDLVLRQWCDMNPALEFRVFVKNAHIVGATQRDLNYYDYLDELSDTFKDLIDEIVHDVVLPKFPDKSFVLDVYIPRPFNKIFIVAAAPFARKTDSLLFSWNEIAAIAPPKNDVEDYELRLVTRHNTGRFASKEHSENHVPQDLVEASLNPEAIRELTQKWKELLSQQAKEESSDSENET [D266A;I267A;N268A]
